The values below come from PMC10411901, “FIRRM cooperates with FIGNL1 to promote RAD51 disassembly during DNA repair” (Science Advances, 2023).

Series [1] has as its target T1, recombinant full-length FIRRM (human, UniProt Q9NSG2 1-853).
T1 construct: full-length codon-optimized human FIRRM from GenScript; Insect cell form: modified pFastBac dual vector with an N-terminal GFP tag removable with TEV protease; also called iFIRRM (form from insect cells); source: purified from bacteria (E. coli BL21RP) or Sf9 insect cells
T1 sequence (looked up): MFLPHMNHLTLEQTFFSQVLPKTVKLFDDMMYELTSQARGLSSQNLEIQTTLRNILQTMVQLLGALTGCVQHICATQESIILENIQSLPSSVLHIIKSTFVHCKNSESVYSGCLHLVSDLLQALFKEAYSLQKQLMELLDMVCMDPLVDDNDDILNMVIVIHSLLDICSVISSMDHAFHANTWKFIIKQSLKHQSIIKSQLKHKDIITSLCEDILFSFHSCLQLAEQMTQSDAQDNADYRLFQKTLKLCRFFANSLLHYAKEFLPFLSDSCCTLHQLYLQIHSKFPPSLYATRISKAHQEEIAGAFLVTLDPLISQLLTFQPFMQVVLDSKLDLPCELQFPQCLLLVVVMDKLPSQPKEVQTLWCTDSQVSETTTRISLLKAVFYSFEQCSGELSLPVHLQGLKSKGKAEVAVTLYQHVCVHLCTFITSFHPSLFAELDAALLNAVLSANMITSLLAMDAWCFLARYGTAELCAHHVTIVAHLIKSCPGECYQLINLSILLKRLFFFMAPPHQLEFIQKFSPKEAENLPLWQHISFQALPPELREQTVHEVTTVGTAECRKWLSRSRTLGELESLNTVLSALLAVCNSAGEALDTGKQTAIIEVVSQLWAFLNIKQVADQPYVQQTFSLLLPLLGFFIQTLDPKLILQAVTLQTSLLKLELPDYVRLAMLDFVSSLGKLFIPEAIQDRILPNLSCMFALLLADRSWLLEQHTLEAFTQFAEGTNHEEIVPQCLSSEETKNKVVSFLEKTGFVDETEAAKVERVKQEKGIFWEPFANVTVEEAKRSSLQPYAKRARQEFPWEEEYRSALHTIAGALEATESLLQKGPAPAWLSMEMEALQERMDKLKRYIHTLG
The series can be described thus: co-IP; purified recombinant RAD51, FIRRM and FIGNL1 together; anti-RAD51 14B4 on protein A/G Sepharose; IPB buffer (20 mM KPO4 pH 7.4, 175 mM KCl, 0.5 mM EDTA, 0.5% NP-40, 10% glycerol, 1 mM DTT); Western blot. The settings on record: both partners purified. (In general: Immunoblotting shows a protein as a band on a membrane.)

Series [2] deals with the molecule itself. The experiment in a line: cryo-EM two-dimensional class averages; FIGNL1 10 μM in 1× PBS with 2 mM MgCl2 and 1 mM AMP-PNP on graphene oxide lacey carbon grids; 2D classes from 1287 particles; hexamer model from an AlphaFold monomer.

B1: recombinant full-length FIGNL1 (natural protein, human, UniProt Q6PIW4 1-674, looked up)
chain: MQTSSSRSVHLSEWQKNYFAITSGICTGPKADAYRAQILRIQYAWANSEISQVCATKLFKKYAEKYSAIIDSDNVESGLNNYAENILTLAGSQQTDSDKWQSGLSINNVFKMSSVQKMMQAGKKFKDSLLEPALASVVIHKEATVFDLPKFSVCGSSQESDSLPNSAHDRDRTQDFPESNRLKLLQNAQPPMVTNTARTCPTFSAPVGESATAKFHVTPLFGNVKKENHSSAKENIGLNVFLSNQSCFPAACENPQRKSFYGSGTIDALSNPILNKACSKTEDNGPKEDSSLPTFKTAKEQLWVDQQKKYHQPQRASGSSYGGVKKSLGASRSRGILGKFVPPIPKQDGGEQNGGMQCKPYGAGPTEPAHPVDERLKNLEPKMIELIMNEIMDHGPPVNWEDIAGVEFAKATIKEIVVWPMLRPDIFTGLRGPPKGILLFGPPGTGKTLIGKCIASQSGATFFSISASSLTSKWVGEGEKMVRALFAVARCQQPAVIFIDEIDSLLSQRGDGEHESSRRIKTEFLVQLDGATTSSEDRILVVGATNRPQEIDEAARRRLVKRLYIPLPEASARKQIVINLMSKEQCCLSEEEIEQIVQQSDAFSGADMTQLCREASLGPIRSLQTADIATITPDQVRPIAYIDFENAFRTVRPSVSPKDLELYENWNKTFGCGK
notes: Insect cell form: modified pFastBac dual vector with an N-terminal GFP tag removable with TEV protease; source: purified from bacteria (E. coli BL21RP) or Sf9 insect cells
With B1, the binding result in series [1] is reported as “binds”.

B2: FIGNL1 purified from insect cells (natural protein, human, UniProt Q6PIW4 1-674, looked up)
chain: MQTSSSRSVHLSEWQKNYFAITSGICTGPKADAYRAQILRIQYAWANSEISQVCATKLFKKYAEKYSAIIDSDNVESGLNNYAENILTLAGSQQTDSDKWQSGLSINNVFKMSSVQKMMQAGKKFKDSLLEPALASVVIHKEATVFDLPKFSVCGSSQESDSLPNSAHDRDRTQDFPESNRLKLLQNAQPPMVTNTARTCPTFSAPVGESATAKFHVTPLFGNVKKENHSSAKENIGLNVFLSNQSCFPAACENPQRKSFYGSGTIDALSNPILNKACSKTEDNGPKEDSSLPTFKTAKEQLWVDQQKKYHQPQRASGSSYGGVKKSLGASRSRGILGKFVPPIPKQDGGEQNGGMQCKPYGAGPTEPAHPVDERLKNLEPKMIELIMNEIMDHGPPVNWEDIAGVEFAKATIKEIVVWPMLRPDIFTGLRGPPKGILLFGPPGTGKTLIGKCIASQSGATFFSISASSLTSKWVGEGEKMVRALFAVARCQQPAVIFIDEIDSLLSQRGDGEHESSRRIKTEFLVQLDGATTSSEDRILVVGATNRPQEIDEAARRRLVKRLYIPLPEASARKQIVINLMSKEQCCLSEEEIEQIVQQSDAFSGADMTQLCREASLGPIRSLQTADIATITPDQVRPIAYIDFENAFRTVRPSVSPKDLELYENWNKTFGCGK
notes: The GFP tag is removable with tobacco etch virus protease; the results speak of the protein from insect cells; source: Sf9 insect cells (baculovirus), purified (gel filtration)
What is called stoichiometry N is the number of molecules, sites or subunits per partner or assembly. On to B2, for which the “stoichiometry N” value in series [2] came to 6.
